Measurements from patent publication US20230212549A1 (3B PHARMACEUTICALS, published 2023).
Numbered stars: 1 amine (or outer) side, 2 acyl side, 3 side chain; on linkers, the order of the positions; unused ones are H or OH. Bridge positions count the residues as written; N and C are the ends. Square brackets hold non-standard residues; d marks the D form. Primed or numbered codes have the meaning given here. * marks the point of attachment. tMeBn(DOTA-AET) = 1,3,5-trimethylbenzylidene (from 1,3,5-tris(bromomethyl)benzene), two thioethers to Cys, third CH2 bears 2-aminoethanethiol via S, its amine acylated by DOTA; Ttds″ = 1,13-diamino-4,7,10-trioxatridecan-succinamic acid spacer, O=C(CCC(=O)[*:2])NCCCOCCOCCOCCCN[*:1]; Ttds = 1,13-diamino-4,7,10-trioxatridecan-succinamic acid, O=C(CCC(=O)[*:2])NCCCOCCOCCOCCCN[*:1]; 3MeBn = 3-Methylbenzylidene (m-xylylene thioether bridge from α,α′-dibromo-m-xylene); Ttds(4) = spacer between chelator and peptide, O=C(CCC(=O)[*:2])NCCCOCCOCCOCCCN[*:1]; N4Ac = 6-Carboxy-1,4,8,11-tetraazaundecane, an N4-chelator, NCCNCC(CNCCN)C(=O)*; NODAGA′ = 1,4,7-triazacyclononane-1-glutaric acid-4,7-diacetic acid chelator; 3MeBn(3) = 3-methylbenzylidene (m-xylylene), from α,α′-dibromo-m-xylene; DOTA = O=C(O)CN1CCN(CC(=O)O)CCN(CC(=O)*)CCN(CC(=O)O)CC1; γGlu = O=C(O)[C@H](CCC(=O)[*:2])N[*:1]; mXylylene = c1cc(C[*:1])cc(C[*:2])c1; PPAc = 4-Carboxymethyl piperazine; AGLU′ = not defined here; Nle = CCCC[C@H](N)C(=O)O; PEG6′ = not defined here; Hexanoyl = CCCCCC(=O)*

Key:
[1] = target: T1, Recombinant human FAP (R&D systems, #3715-SE) (human, UniProt Q12884 26-760); experiment: SPR (Biacore T200), FAP captured on anti-FAP antibody, single cycle kinetics
T1 construct: bought; in SPR captured on immobilized anti-FAP antibody MAB3715; also called rhFAP; human recombinant FAP

[2] = target: T2, human fibroblast activation protein (FAP) on WI-38 fibroblasts (human, UniProt Q12884 1-760); experiment: competitive FACS, WI-38 cells, Cy5-labeled peptide as competitor; B = pIC50 7.1 to 8.0
T2 construct: FAP-expressing human WI-38 fibroblasts (ECACC)

[3] = target: T3, human fibroblast activating protein (FAP) on WI-38 fibroblasts (human, UniProt Q12884 1-760); experiment: competitive FACS on WI-38 cells vs 3 nM Cy5-labeled peptide; pIC50 category B = 7.1-8.0
T3 construct: FAP-expressing human WI-38 fibroblasts (ECACC)

Binder: N4Ac-E[Ttds″][Nle]CPPTEFC-OH (linker 4-10 via 3MeBn, also called 3BP-4222) [N4Ac-Glu-Ttds-Nle-[Cys-(3MeBn)-Pro-Pro-Thr-Glu-Phe-Cys]-OH]
- pKD Category [1]: > 8 pKD
- pIC50 [2]: 7.1 to 8 pic50

B1: N4Ac-gGlu-Ttds-Nle-[Cys-(3MeBn)-Pro-Pro-Thr-Glu-Phe-Cys]-OH (peptide)
peptide: N4Ac-[γGlu][Ttds″][Nle]CPPTEFC-OH
modifications: linker 4-10 via mXylylene
SMILES: CCCC[C@H](NC(=O)CCC(=O)NCCCOCCOCCOCCCNC(=O)CC[C@H](NC(=O)C(CNCCN)CNCCN)C(=O)O)C(=O)N[C@H]1CSCc2cccc(c2)CSC[C@@H](C(=O)O)NC(=O)[C@H](Cc2ccccc2)NC(=O)[C@H](CCC(=O)O)NC(=O)[C@H]([C@@H](C)O)NC(=O)[C@@H]2CCCN2C(=O)[C@@H]2CCCN2C1=O
notes: also called 3BP-4247
- pIC50 [2]: 7.1 to 8 pic50

B2: N4Ac-Glu(AGLU′)-Ttds-Nle-[Cys-(3MeBn)-Pro-Pro-Thr-Glu-Phe-Cys]-OH (peptide)
peptide: N4Ac-E[Ttds″][Nle]CPPTEFC-OH
modifications: linker 4-10 via 3MeBn; not fully specified (residue 1); printed as N4Ac--E(AGLU)--Ttds--Nle--[C(3MeBn)-PPTEFC]-OH
notes: also called 3BP-4249
- pKD Category [1]: > 8 pKD
- pIC50 [2]: 7.1 to 8 pic50

B3: N4Ac-Glu(AGLU′)-Glu(AGLU′)-Ttds-Nle-[Cys-(3MeBn)-Pro-Pro-Thr-Glu-Phe-Cys]-OH (peptide)
peptide: N4Ac-E(AGLU′)E(AGLU′)[Ttds″][Nle]CPPTEFC-OH
modifications: linker 5-11 via 3MeBn(3); reading uncertain; also: printed as N4Ac-Glu(AGLU′)-Glu(AGLU′)-Ttds-Nle-[Cys-(3MeBn)-Pro-Pro-Thr-Glu-Phe-Cys]-OH
notes: also called 3BP-4266
- pIC50 [2]: 7.1 to 8 pic50

Binder: {DOTA}-[Ttds][Nle]CPPTQFCD[Ttds]K(DOTA)-NH2 (linker 3-9 via tMeBn(DOTA-AET), also called 3BP-4392) [DOTA-Ttds-Nle-[Cys(tMeBn(DOTA-AET))-Pro-Pro-Thr-Gln-Phe-Cys]-Asp-Ttds-Lys(DOTA)-NH2]
- pIC50 [2]: 7.1 to 8 pic50

B4: Hex-[C(tMeBn(GaNOPO-AET))-PPTEFC]-OH (peptide)
peptide: Hexanoyl-CPPTEFC-OH
modifications: linker 1-7 via tMeBn(GaNOPO-AET); also: gallium-NOPO chelator-AET arm on the linker
notes: also called 3BP-4816
- pIC50 [3]: 7.1 to 8 pic50

Binder: CPPTEFC (N-term Hex-; Cys1 and Cys7 thioether-bridged by tMeBn(NODAGA-AET); C-term -OH, also called 3BP-4695) [Hex-[C(tMeBn(NODAGA-AET))-PPTEFC]-OH]
- pIC50 [3]: 7.1 to 8 pic50

Binder: Hexanoyl-CPPTEFC-OH (linker 1-7 via tMeBn(NOPO-AET), also called 3BP-4818) [Hex-[C(tMeBn(NOPO-AET))-PPTEFC]-OH]
- pIC50 [3]: 7.1 to 8 pic50

Binder: {N4Ac-PEG6′-Ttds(4)}-[Nle]CPPTEFC-OH (linker 2-8 via 3MeBn, also called 3BP-4780) [N4Ac-PEG6-Ttds-Nle-[C(3MeBn)-PPTEFC]-OH]
- pIC50 [3]: 7.1 to 8 pic50

Binder: {N4Ac-PPAc-PEG6′}-[Nle]CPPTEFC-OH (linker 2-8 via 3MeBn, also called 3BP-4781) [N4Ac-PPAc-PEG6-Nle-[C(3MeBn)-PPTEFC]-OH]
- pIC50 [3]: 7.1 to 8 pic50

Binder: {N4Ac-PPAc-Ttds(4)}-[Nle]CPPTEFC-OH (linker 2-8 via 3MeBn, also called 3BP-4782) [N4Ac-PPAc-Ttds-Nle-[C(3MeBn)-PPTEFC]-OH]
- pIC50 [3]: 7.1 to 8 pic50

Binder: {NODAGA′-Ttds(4)}-[Nle]CPPTEFC-NH2 (linker 2-8 via mXylylene, also called 3BP-4743) [NODAGA-Ttds-Nle-[C(3MeBn)-PPTEFC]-NH2]
- pIC50 [3]: 7.1 to 8 pic50

Binder: {NODAGA′-Ttds(4)}-[Nle]CPPTEFC-OH (linker 2-8 via mXylylene, also called 3BP-4714) [NODAGA-Ttds-Nle-[C(3MeBn)-PPTEFC]-OH]
- pIC50 [3]: 7.1 to 8 pic50
